Test results taken from US20240059741A1, “COMPOSITION FOR PREVENTION OR TREATMENT OF SARS-COV-2 INFECTION” (priority 2020, published 2024).
Where a SMILES comes first, the peptide text is derived from it. Bridges are numbered along the chain shown (N, C = ends). Where no end group is shown, it is not given here.

What was measured:
[1] = target: T1, interaction of SARS-CoV-2 S1 and hACE2 in hACE2-overexpressed HEK293 cells (Severe acute respiratory syndrome coronavirus 2, UniProt P0DTC2); type: cell-based, human
T1 construct: S1 protein-His Tag (AcroBiosystems, S1N-C52H3-100UG, USA); AcroBiosystems (S1 protein) 145033; S1N-C52H3-100UG; host or cells: HEK293

S1 subunit of SARS-CoV-2 = target: T2, S1 subunit of SARS-CoV-2 (Severe acute respiratory syndrome coronavirus 2, UniProt P0DTC2); type: binding
T2 construct: ACE2 and S1 subunits of SARS-CoV-2; His Tag; purchased AcroBiosystems S1N-C52H3-100UG

Row | Compound | effect on membrane localization of S1 [1] | effect on S1-ACE2 interaction [1] | dependent binding to S1 (S1 subunit of SARS-CoV-2)
1 | CC[C@H](C)[C@H](NC(=O)[C@H](CCCNC(=N)N)NC(=O)[C@@H]1CSSC[C@H](NC(=O)CNC(=O)CNC(=O)[C@@H]2CCCN2C(=O)[C@H](CO)NC(=O)[C@H](C)NC(=O)[C@H](CC(C)C)NC(=O)[C@H](CO)NC(=O)[C@H](CO)NC(=O)[C@H](CCCCN)NC(=O)[C@H](Cc2ccc(O)cc2)NC(=O)[C@H](Cc2ccccc2)NC(=O)[C@H](CC(C)C)NC(=O)[C@H](CC(=O)O)NC(=O)[C@H](CCC(=O)O)NC(=O)[C@@H]2CCCCNC(=O)C[C@H](NC(=O)[C@H](CCCCN)NC(=O)[C@H](CC(=O)O)NC(=O)[C@H](CC(C)C)NC(=O)[C@H](Cc3ccccc3)NC(=O)[C@H](CC(N)=O)NC(=O)[C@H](C)NC(=O)[C@H](C)NC(=O)[C@H](CCC(N)=O)NC(=O)[C@@H](N)CC(C)C)C(=O)N[C@@H](CC(N)=O)C(=O)N[C@@H](CC(=O)O)C(=O)N[C@@H](CCC(=O)O)C(=O)N2)C(=O)N[C@@H](CC(C)C)C(=O)NCC(=O)N[C@@H](CCCCN)C(=O)NCC(=O)N[C@@H](CC(=O)O)C(=O)N1)C(=O)N[C@@H](CC(C)C)C(=O)O [CSNP2] (H-LQAANFLDKDNDEKEDLFYKSSLASPGGCLGKGDCRIL-OH; lactam 10-14; disulfide 29-35; N-terminus and C-terminus assumed) | completely blocked the membrane localization of S1 |  | 
2 | CSNP3 (ENAINFLDKDNHEKEDLFYQ; not fully specified) |  | completely eliminated the S1-ACE2 interaction | no dependent binding
